Results published in paper PMC5124697, “Expression Profiles and DNA-Binding Affinity of Five ERF Genes in Bunches of Vitis vinifera cv. Cardinal Treated with High Levels of CO2 at Low Temperature”.

Columns and labels:
Assay in all cases: EMSA; EMSA: 2 ug protein in 20 ul, 80 nM biotin probe, 50 ng/ul poly(dI-dC), 2.5% glycerol, 1x binding buffer (composition and pH not given), room temperature 20 min; 6% native PAGE, 0.5x TBE; competition 500x unlabeled probe (50 uM unlabeled DNA listed)
Settings in all cases: protein: recombinant; tags: N-terminal His (pTrcHisA); label: 3' biotin
[1] = biological target: VviERF11-c (Vitis vinifera cv. Cardinal, UniProt A0A1L6BXF0 1-220)
[2] = biological target: VviERF10-c (Vitis vinifera cv. Cardinal, UniProt F6HIF5 1-204)
[3] = biological target: VviERF069-c (Vitis vinifera cv. Cardinal, UniProt A0A1L6BXE7 1-285)
[4] = biological target: VviERF2-c (Vitis vinifera cv. Cardinal, UniProt A0A1L6BXE6 1-282)
[5] = biological target: VviERF6L7-c (Vitis vinifera cv. Cardinal, UniProt A0A1L6BXF1 1-277)
Chain of VviERF6L7-c (A0A1L6BXF1 entry or part of it): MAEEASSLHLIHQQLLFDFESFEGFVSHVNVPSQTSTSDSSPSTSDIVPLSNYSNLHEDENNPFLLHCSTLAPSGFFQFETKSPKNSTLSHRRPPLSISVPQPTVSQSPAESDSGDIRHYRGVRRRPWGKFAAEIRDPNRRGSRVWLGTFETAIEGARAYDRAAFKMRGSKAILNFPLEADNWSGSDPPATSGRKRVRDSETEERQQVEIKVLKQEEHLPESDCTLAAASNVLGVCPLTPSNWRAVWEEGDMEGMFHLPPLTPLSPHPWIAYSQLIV

Chain of VviERF11-c (A0A1L6BXF0 entry or part of it): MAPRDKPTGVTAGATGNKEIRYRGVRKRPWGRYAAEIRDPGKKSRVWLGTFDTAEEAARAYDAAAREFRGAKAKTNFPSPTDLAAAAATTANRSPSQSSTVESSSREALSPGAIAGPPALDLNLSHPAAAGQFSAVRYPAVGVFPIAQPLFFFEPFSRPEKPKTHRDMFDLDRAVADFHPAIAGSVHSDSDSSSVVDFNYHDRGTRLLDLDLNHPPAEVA
Chain of VviERF2-c (A0A1L6BXE6 entry or part of it): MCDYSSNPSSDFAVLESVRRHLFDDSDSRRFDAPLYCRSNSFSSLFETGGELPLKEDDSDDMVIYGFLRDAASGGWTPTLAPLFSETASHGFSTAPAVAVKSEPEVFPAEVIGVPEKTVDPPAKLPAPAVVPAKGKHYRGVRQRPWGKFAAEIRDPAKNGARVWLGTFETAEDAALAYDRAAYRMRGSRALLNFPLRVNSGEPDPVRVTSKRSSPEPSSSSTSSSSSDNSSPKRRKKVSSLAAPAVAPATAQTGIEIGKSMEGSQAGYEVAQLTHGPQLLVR
Chain of VviERF10-c (F6HIF5 entry or part of it): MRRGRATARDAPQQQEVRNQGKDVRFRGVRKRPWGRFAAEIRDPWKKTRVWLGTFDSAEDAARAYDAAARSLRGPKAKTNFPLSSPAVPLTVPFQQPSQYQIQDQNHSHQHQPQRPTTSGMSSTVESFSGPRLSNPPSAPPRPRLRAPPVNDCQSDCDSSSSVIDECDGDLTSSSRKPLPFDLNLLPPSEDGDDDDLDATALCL
Chain of VviERF069-c (A0A1L6BXE7 entry or part of it): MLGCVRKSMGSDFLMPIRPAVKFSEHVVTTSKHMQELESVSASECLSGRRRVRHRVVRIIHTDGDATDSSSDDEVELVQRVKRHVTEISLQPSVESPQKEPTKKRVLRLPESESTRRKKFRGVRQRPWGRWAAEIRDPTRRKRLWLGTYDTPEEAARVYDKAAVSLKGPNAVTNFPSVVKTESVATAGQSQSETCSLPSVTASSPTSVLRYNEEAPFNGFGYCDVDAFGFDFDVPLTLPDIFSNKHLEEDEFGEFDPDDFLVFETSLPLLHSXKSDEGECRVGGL

| Binder | binding result [1] | binding result [2] | binding result [3] | binding result [4] | binding result [5] |
| --- | --- | --- | --- | --- | --- |
| Le-osmo GCC box (dsDNA) DNA 1: AAAAGCCGCCACAC DNA 2: GTGTGGCGGCTTTT | no binding | no binding | no binding | no binding | no binding |
| Vcgns1 GCC box (dsDNA) DNA 1: TGGAGCCGCCGGGA DNA 2: TCCCGGCGGCTCCA |  |  |  |  | no binding |
| Vcchit1b GCC box (dsDNA) DNA 1: AAAAGCCGCCCACG DNA 2: CGTGGGCGGCTTTT | binds |  |  | binds |  |
| Nt-chit GCC box (dsDNA) DNA 1: AAGAGCCGCCACTA DNA 2: TAGTGGCGGCTCTT | no binding | no binding | no binding | no binding | no binding |
